Results on 17 molecules are retold here after US20230035798A1 (CAPELLA BIOSCIENCE, published 2023).

Assay [1] has as its target T1, human LIGHT (TNFSF14), full length, membrane-bound (214E allele) (human, UniProt O43557 1-240).
T1 construct: also called membrane LIGHT; human membrane LIGHT
Description: flow cytometry, EL4-LIGHT cells.

Assay [2] deals with membrane LIGHT without residues 81-84 (EL4-NC-LIGHT cells) (human, UniProt O43557 1-240). Description: cell-based or functional assay.
Assay [3] deals with T1, human LIGHT (TNFSF14), full length, …. Description: flow cytometry, HEK293FF human LIGHT cells (value given in the method).

Residue numbers refer to the chain shown, from its start. In names and notes the source's numbering stands.

Sequence of membrane LIGHT without residues 81-84 (EL4-NC-LIGHT cells) (O43557 other isoform, or with tags, fused parts or gaps): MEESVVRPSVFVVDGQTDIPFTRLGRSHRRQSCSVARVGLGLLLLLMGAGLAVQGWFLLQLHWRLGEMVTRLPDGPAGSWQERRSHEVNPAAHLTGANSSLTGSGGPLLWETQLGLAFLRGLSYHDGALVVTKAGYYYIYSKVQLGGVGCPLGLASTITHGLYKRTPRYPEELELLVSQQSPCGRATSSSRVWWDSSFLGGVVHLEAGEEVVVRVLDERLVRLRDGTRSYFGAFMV
T1 sequence (O43557 whole entry K214E): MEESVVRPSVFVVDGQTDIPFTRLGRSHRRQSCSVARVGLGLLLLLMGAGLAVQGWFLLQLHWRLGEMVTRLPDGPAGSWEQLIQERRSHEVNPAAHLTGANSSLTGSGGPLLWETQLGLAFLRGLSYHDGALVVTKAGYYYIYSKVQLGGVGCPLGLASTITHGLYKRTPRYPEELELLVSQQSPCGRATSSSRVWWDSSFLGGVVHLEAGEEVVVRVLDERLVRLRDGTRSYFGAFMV

B1: 3D12_var3 (antibody, human IgG4, V domains shown)
VH: QVQLVQSGAEVKKPGASVKVSCKASDYTFTDSEIHWVRQAPGQGLEWMGEIDPETGGTAYAQKFQGRVTLTADKSTSTAYMELSSLRSEDTAVYYCSRETDYFFDYWGQGTLVTVSS
VL: DIQMTQSPSSLSASVGDRVTITCGASENIYGALNWYQRKQGKAPQLLIYGATNLADGVSSRFSGSGSGRDYTLTISSLQPEDVATYYCQNVLSTPWTFGQGTKLEIKR
notes: human IgG4 (S241P, L248E, Kabat); also called 3D12 VL1VH3 (var3)
In turn, B1 yielded an EC50 in assay [1] of 0.33 nM. The “IC50, inhibition of IL-8 secretion from HT-29 cells (EL4-NC-LIGHT cells)” value (shortened to “IC50, inhibition of IL-8 secretion”) in assay [2] stood at 0.53 nM.

B2: 3D12_var15 (antibody, human IgG4, V domains shown)
VH: B1 VH
VL: B1 VL with G24R, R38Q, Q40P, Q45K, D56E, S59P
notes: human IgG4 (S241P, L248E, Kabat); also called 3D12 VL4VH3 (var15)
The molecule B2 registered an EC50 in assay [1] of 0.22 nM. Further, the “IC50, inhibition of IL-8 secretion” value in assay [2] is 0.38 nM.

B3: 3D12_var1 (antibody, human IgG4, V domains shown)
VH: B1 VH with M48I, A61N, Q65K, V68A
VL: B1 VL
notes: human IgG4 (S241P, L248E, Kabat); also called 3D12 VL1VH1 (var1)
In turn, B3 displayed an EC50 in assay [1] of 0.22 nM. Besides, the “IC50, inhibition of IL-8 secretion” value in assay [2] worked out at 0.33 nM.

B4: 3B04_var10 (antibody, human IgG4, V domains shown)
VH: B1 VH with D26G, S32Y, I34M, M48I, G57D, A61S, L83F
VL: B1 VL with R38Q, Q40P, Q45K, S59P, V83F, S93T
notes: human IgG4 (S241P, L248E, Kabat); also called 3B04 VL3VH2 (var10)
On to B4, for which the concentration giving a half-maximal response (EC50) in assay [1] is 0.49 nM. Also, the “IC50, inhibition of IL-8 secretion” value in assay [2] was found to be 0.04 nM.

B5: 3D12_var8 (antibody, human IgG4, V domains shown)
VH: B1 VH with D26G, I34M
VL: B1 VL with Q45K, S59P
notes: human IgG4 (S241P, L248E, Kabat); also called 3D12 VL2VH4 (var8)
In the case of B5, the EC50 in assay [1] worked out at 0.31 nM. Also, in assay [2], the “IC50, inhibition of IL-8 secretion” value stood at 0.67 nM.

B6: 3D12_var10 (antibody, human IgG4, V domains shown)
VH: B1 VH with M48I, A61N
VL: B1 VL with R38Q, Q40P, Q45K, S59P
notes: human IgG4 (S241P, L248E, Kabat); also called 3D12 VL3VH2 (var10)
In the case of B6, the EC50 in assay [1] is 0.39 nM. The “IC50, inhibition of IL-8 secretion” value in assay [2] was found to be 0.44 nM.

B7: 3D12_var5 (antibody, human IgG4, V domains shown)
VH: B1 VH with M48I, A61N, Q65K, V68A
VL: B1 VL with Q45K, S59P
notes: human IgG4 (S241P, L248E, Kabat); also called 3D12 VL2VH1 (var5)
In assay [1], B7 yielded an EC50 of 0.33 nM. The “IC50, inhibition of IL-8 secretion” value in assay [2] is 0.59 nM.

B8: 3D12_var4 (antibody, human IgG4, V domains shown)
VH: B1 VH with D26G, I34M
VL: B1 VL
notes: human IgG4 (S241P, L248E, Kabat); also called 3D12 VL1VH4 (var4)
For B8, the EC50 in assay [1] stood at 0.32 nM. Also, the “IC50, inhibition of IL-8 secretion” value in assay [2] was determined as 0.66 nM.

B9: 3B04_var2 (antibody, human IgG4, V domains shown)
VH: B1 VH with D26G, S32Y, I34M, M48I, G57D, A61S, L83F
VL: B1 VL with V83F, S93T
notes: human IgG4 (S241P, L248E, Kabat); also called 3B04 VL1VH2 (var2)
Molecule B9 registered an EC50 in assay [1] of 0.38 nM. For the same molecule, the “IC50, inhibition of IL-8 secretion” value in assay [2] was determined as 0.06 nM.

B10: 3D12_var16 (antibody, human IgG4, V domains shown)
VH: B1 VH with D26G, I34M
VL: B1 VL with G24R, R38Q, Q40P, Q45K, D56E, S59P
notes: human IgG4 (S241P, L248E, Kabat); also called 3D12 VL4VH4 (var16)
In assay [1], B10 displayed an EC50 of 0.26 nM. The “IC50, inhibition of IL-8 secretion” value in assay [2] was 0.52 nM.

B11: 3B04_var5 (antibody, human IgG4, V domains shown)
VH: B1 VH with D26G, S32Y, I34M, M48I, G57D, A61S, Q65K, V68A, L83F
VL: B1 VL with Q45K, S59P, V83F, S93T
notes: human IgG4 (S241P, L248E, Kabat); also called 3B04 VL2VH1 (var5)
As for B11, the EC50 in assay [1] came out at 0.27 nM. The “IC50, inhibition of IL-8 secretion” value in assay [2] is 0.04 nM.

B12: 3B04_var14 (antibody, human IgG4, V domains shown)
VH: B1 VH with D26G, S32Y, I34M, M48I, G57D, A61S, L83F
VL: B1 VL with G24R, R38Q, Q40P, Q45K, D56E, S59P, V83F, S93T
notes: human IgG4 (S241P, L248E, Kabat); also called 3B04 VL4VH2 (var14)
B12: the EC50 in assay [1] came out at 0.3 nM. Besides, the “IC50, inhibition of IL-8 secretion” value in assay [2] was found to be 0.05 nM.

B13: 3B04_var11 (antibody, human IgG4, V domains shown)
VH: B1 VH with D26G, S32Y, I34M, G57D, L83F
VL: B1 VL with R38Q, Q40P, Q45K, S59P, V83F, S93T
notes: human IgG4 (S241P, L248E, Kabat); also called 3B04 VL3VH3 (var11)
With B13, in assay [1], it took 0.37 nM to reach a half-maximal effect (EC50). In addition, the “IC50, inhibition of IL-8 secretion” value in assay [2] worked out at 0.06 nM.

B14: 3B04_var3 (antibody, human IgG4, V domains shown)
VH: B1 VH with D26G, S32Y, I34M, G57D, L83F
VL: B1 VL with V83F, S93T
notes: human IgG4 (S241P, L248E, Kabat); also called 3B04 VL1VH3 (var3)
In assay [1], B14 had an EC50 of 0.32 nM. In assay [2], the “IC50, inhibition of IL-8 secretion” value came to 0.04 nM.

B15: 3B04_var13 (antibody, human IgG4, V domains shown)
VH: B1 VH with D26G, S32Y, I34M, M48I, G57D, A61S, Q65K, V68A, L83F
VL: B1 VL with G24R, R38Q, Q40P, Q45K, D56E, S59P, V83F, S93T
notes: human IgG4 (S241P, L248E, Kabat); also called 3B04 VL4VH1 (var13)
For the molecule B15, the response in assay [1] was half-maximal at 0.32 nM (EC50). The “IC50, inhibition of IL-8 secretion” value in assay [2] was found to be 0.04 nM.

B16: 3B04_var12 (antibody, human IgG4, V domains shown)
VH: B1 VH with D26G, S32Y, I34M, G57D
VL: B1 VL with R38Q, Q40P, Q45K, S59P, V83F, S93T
notes: human IgG4 (S241P, L248E, Kabat); also called 3B04 VL3VH4 (var12)
B16 gave an EC50 in assay [1] of 0.24 nM. Further, the “IC50, inhibition of IL-8 secretion” value in assay [2] was determined as 0.07 nM.

B17: LTβR-Fc (Fc fusion, UniProt P36941 28-227, looked up)
chain: SQPQAVPPYASENQTCRDQEKEYYEPQHRICCSRCPPGTYVSAKCSRIRDTVCATCAENSYNEHWNYLTICQLCRPCDPVMGLEEIAPCTSKRKTQCRCQPGMFCAAWALECTHCELLSDCPPGTEAELKDEVGKGNNHCVPCKAGHFQNTSSPSARCQPHTRCENQGLVEAAPGTAQSDTTCKNPLEPLPPEMSGTMLM
modifications: biotinylated (EZ-Link NHS-LC-Biotin) in the competition assays
notes: also called LTBR-Fc; biotin-LTβR-Fc; not shown: Fc part of the bought fusion protein
Turning to B17, the EC50 in assay [3] came to 15 nM.
